Data as given in a protein production outcome set (Wang et al. 2014).

Assay: label from the status in PepcDB records

Protein production, failed:
MDLRAIAMGLAFAFMWSSAFSSARIIVADASPLFSLACRFLISGLLGVIIARAMGQTWRLTRNQWKATIVFGICQNALYLGLNFYAMQTVEASVAAIIASTMPLLVALASWGLFGERLPALGIAGLLAGFLGVALIMGARIGAGVDLFGVLLCGLGALALAAATLALRGATSGGNFMMVVGLQMLVGSAVLFLATPIFETVHVTPTLPLALAFAYTTLVPGLTATFVWVLLLNRIGAIRAATFHFLNPVFGVAIAAALLGERLGALDAIGVAITTAGILAVQLSRQASARKP
MDMDEKDVVETEEESFAELFEKSNSETQRLRPGSKVEGKILKIGAEWVFIDIGKKGEGVMERKELQDAEGNLTVAEGDTITAWFTGSVRNEMRFTTKLGAGAAANAQLEEAHRSGIPVEGFVVKEIKGGFEVRLSGTTRAFCPFSQISLRRAENPAEFVGKHLLFKVTEYSERGRNIVLSHRQILEEEQRVKREALKEVLLEGMTVTGTVTRLADFGAFVDLGGVDGLIPVSEVGWTRVKHVRDVLSVGEQVSVVIKKIDWEAGKISLSLKDTLADPWTTVAEQFPEGSYHTGTVARLAAFGAFVTLAPGIDGLIHISKLGKGKRINHPSDVLKEGETVEVKVDGVDREARRLSLALAEVSRAAEEEEKSVASFRQQATSSSKESMGSFGDLLKAKIEEKRLEHHHHHH
MDMFGVAVLIFLVTDPFGNIAVFLAALKGVAPGRRLRVAFRELAFALGLLLLFLTLGEHILSGLGLSREATGIAGGIILFVIAMRLIFPSPQGLLGEVPDGEPLLVPLATPAVAGPSALAMLITLRTTFDGPLWELYLAVVLAWAATALILLQAAFLQRFLGPRGLTAIERLAGMLLIMLSVDMLLDNLRSVLHIAA
MDMKKYILSLSLLTVINSSAIATTQEGEEAYNKGYYEKAFILLSPEADKGDAKAQYLLGKMYYNAQGVTYNPEKTEQLLLASANQGNVDAQVLLAGFYWYLNTPEGYKKAFEWYQKAADQNNADGQYGLGYMYDTGTGVPQNSDTAMVWYKKAAEQGNSNAALAIGYNYDTGTGVKKDKTQALNWYAKAADLGNASAQYNLGLMYEQGDGVPKDYQKAAEYFEKAANQGHAKSQLELGYLYDSGKLGKSDLQKAAFWYQKSADLGNANAQFNLADMYFYGDGVGKSLEQSVYWMQKAAEQGYGKAQNQLGIYYRDGIGVAADPVKAYAWFTAAKNNGFEKAASNASDLEKSMNPEDLSKARILGQQYTDNYKAKK
MDMTYYDHGTPAERWERARMFFDAKDYAAAARVLDGLVAQVPEQTGPRLLLARSYYHSAQLRRAEAELRVVVERDPVEHYARLMLGRTLERQGRQEEADAQLRIASALAGDFAEL
MDNEEYYKILGVAKSASQDEIKHAYRKMSKKYHPDLNHQPGAEDKYKQVQEAYETLGDPQKRAAYDQYGKAGANANNGQGGFGGFQQSGFNFNGQDFGDFSDIFSQMFGGSFNPNAPRKGRDLQYRINLTFEEAVFGKETEIKYVRQESGGNSKEHTVKVTIPAGVETGQQMRLAGQGEAGTHGGPYGDLYVEFIVGKSKDGFERQGANIYLEEPINFVQAALGDKIKVKTVHGDVELTIPAGTQTDTEFRLRGKGAPYVNSSRIGDEYVKVIVQVPKRLNEKEKKALKTYADLRGENVNPQKRRGLFG
MDNKVSILNQPKPFKMIFFIELWERFGYYGLQGILAVYFVDKLGFSMQDSFVTFGAFAALVYGLVSVGGYVGDYVLGTKRTMVFGAVVLALGYFLMGFSILNPNFIYLALGAIAVGNGLFKANPSSLLAKCYEKGDSRLDGAFTLYYMSINIGSLVSLSISPVIANNYGYEYAFVICGLGLIASLFSYFSLRSTVQGIGSEPDALPLNKTKALIVLIGTVASTLVCAWLLQNIMMANLALGLIGVGVVGFFLKETFKETGEQRNKMIVAFILMLQAIIFYVLYAQMPTSLNFFAINNVHSELFGIDINPVSLQALNPFWVIFCSPILAYLYTYYGNQNKDLSMPGKFTVGMFMCAFGFLSVAAAGNWFADQAGMVSVWWMILVYLFQSLGELMISGLGLAMVASLVPQRLMGFTMGAWFLTQAASFIIGGYVATFSATPEHLTAPLDTLPVYTELFQNIGFVTLAVAIVMAFTAPKLNKMMTSSQPEDAELVEQP
MDNLFTPSAKSVLVLAQEQAKYFKHQAVGTEHLLLALAIEKNGIANKVLQQYAVSEDDIREEIERFTGYGTLSNVGKDTYLPYSPKAKEILSVAGDEAKRLGANKIGTEHLLLAMLSDESILSSRILMNLNLDLGQTRKVVLRKLG
MDPFDAGQAQRGNGSTESSGREDREGEEAQWVGVLTHAVLAADDPANLGDSAPAEGGHDQMLEEWAAEEGQNPLEDRQEAVRRVNAWNQGELNLAMLRLTSLPPLPAGLHSLDASFNRLTSLPETLPDALNSLNVNGNQLVSLPALPAGLALLDVWSNRLTSLPETLPAALEGLNVGNNQLTSLPEALPARLESLDVSVNQLTSLPETLPASLGSLDVGVNQLTSLPETLPTSLGRLYLNDNQLTSLPTGLLTQLGAAAEVVVSGNPLPQEMLMNLDTIQSTDGYAGPRVVFDLSETHEDQWEDAAVAPFPLETVAAESLPEAVADWLNGDPKEGDPEVVAKWQSFAEEPGAQQYADFLNGLRNTVNSGNEGFQQGVANDLRQAAANPQLRAQYFQLALDANESCADRRTLTWNGMQTARLIANVENGLYDNNEGVAALVDLGRVMFRLEALGGIAREKVQSLRTGGTINNVDEIEVYLAYQATLRERLGLQHIAPDMNYFYDSHLTEEDIDRAETSVRSKEATGFADYLATDWKPWDDVVLRIEPEHHATMEEKLADALEEEFPGRLKQKLVEAGLIGAEADVVADAEREFGPQVSKDIAREIKGALRDTVLNKRGLSL
MDPSSVIWIFFVFLFFYPQVLFRYRLLQRYKFIKQFEAVRKTRAIVMIHRQEQLALFGIPLYKYITIEDSEEILRAIRMTPEDMPIDLILHTPGGLVLASEQIAIALKEHKAKTTVIIPHYAMSGGSLIALAADEIIIDKNAVMGPVDPQIGQYPAASIINAINTKYTDELDDETLILGDIARKAIVQVKEFVYDILKDKMGEEKAKYLSETLSTGKWTHDYPLTINKLKDLGIEVNTELPNIVYELFDLYRQPVNQRPSVQYVPVPYKRGTK
MDQLSEKQIWYYHIIPEYQTEKSFYACVRRSGMIKFDTFYFPHMLSARETQRSIKFGDGVWSGCLYDPDIYTDGKISIQGVGGVLFPREAEIGGCVCLCLIFLIKLGLSTKYMKSHVSFDVSCDL
MDQNAILLALGGIGAAALLSQWLAWRLRLPAILFLLLSGIVAGPLLGWLDPDEMFGPLLFPLVSLAVALILFEGSLTLHFSEWKEIGTVVHRMVTIGALSTWGVIALAAHYLLDFSWEMALLFGTLTLVTGPTVIVPMLRVVRPKAAVANILRWEGIVIDPIGALLAVVVYSFIISSGEGDGWLHSLQTFGGVILCGSLFGILGGWALGIVLRRHWLPDYLHNLATLAAVLGVFIASNRVMHESGLLAVTLMGMGLANMKGVDVRQILHFKENLSVLLISGLFILLAARLDINALLGLGPAALLVLLLIQFVARPLNVALSTWGSPLSWRERALLSWIAPRGIVAAAVSAIFAIRLSAEGHAQAALLVPLTFLVIIGTVVLQSATARPLARLLKVAEPSPSGYLIVGANPVGRAIGKALKSLGSRVLLTDSSWENIRAARMDNLPTYFGNPTSQHAEAHLDLVGIGHLLGVSPAGELNTLAAMRFRHEFGHRQLFGLPTSQEAKRTDKHRSSDEHRGRPLGQRPLTYAQFASLLSRGAEIRTTLLTDTFGWNDYQALHGESAILLFARDPNGRMHVATPQSTLAPGTGWTLLSLIDAEPSVSKSQATEIAD

Protein production, not failed:
MDLNRMGKDEYYVQITVDGKEVHSKADNGQKYKDYEYKLTGFDKDGKEKELEFTAQKNLRKEAFLRVYHSDKKGVSAWEEVKKDELPAKVKEKLGVKLEHHHHHH
MDLPVMPPVKPMLAKSVAKIPPDMQYEAKWDGFRAIVFRDGTEVELGSRTGKPLTRYFPELVEALRDRLPERCVIDGEIVIARDGRLDFDALTERIHPAESRVRMLAEKTPASFVAFDLLALADDSLLDTPLTERRALLESALSGVTAPVHVAPATTDREVAEQWFEQYEGAGLDGVIAKPLTLRYRQDERAMFKVKHERTADVVVAGYRLHKSGPVVGSLLLGLYDDRGALQHVGVSAAFPMKRRAELVEELEPLRMEDAAGHPWAAWSNEAAHETARLPGAPSRWSGKKDLSWVPLRPERVAEVAYDHMENGARFRHTARFRRWRPDRTPESCTYAQLEEPVSYDLTEILGSRGLEHHHHHH
MDLWDRFCVNLHTRKITLEDESQKRSMDLRLLHGVAYGHSWFGKWGYRFCSGSFGVEEHHYHRAIAFLTSISLVDDITANFRENKANLNIGDIVRCYRDMSEIQLTTLQDLLRFMLTIKSRAPPIRIPIGKIEAPSVVLPSMKAYGTRACPQVKQCPKDKEKSVKCRKFALPLPLQACFHFPFRSSMTLLSGSFRS
MDMKRRIHLELRNRTPAAVRELVLDNCKSNDGKIEGLTAEFVNLEFLSLINVGLISVSNLPKLPKLKKLELSENRIFGGLDMLAEKLPNLTHLNLSGNKLKDISTLEPLKKLECLKSLDLFNCEVTNLNDYRESVFKLLPQLTYLDGYDREDQEAPDSDAEVDGVDEEEEDEEGEDEEDEDDEDGEEEEFDEEDDEDEDVEGDEDDDEVSEEEEEFGLDEEDEDEDEDEEEEEGGKGEKRKRETDDEGEDD
MDMKTKLQTIIGMFQITAWDETSYFESDNGAKLTQAVITQSYQGVLQGHSEIRYLMSYQDNANATFVGFEHFTGSLGDKKGSFILQHKGLFAAGVASSEFELVERSATGDFVHLVGKGHFVSTENGQANYQITLQDS
MDMYSMKISEGVERIDGVTANSYLLTLDGKNILIDTGTAGGGKKIIDYFNKNGTKPDYVIVTHHHADHVGGLKEISERFNPEIYVPDLEMKIIRGEEDPPKPRSFFGRMITGMLKFEPVKDVKPVSKASIPGIEEMATPGHTIGSTSYIVEDLHILFSGDAAVESGGELKINKSFSYEINSAERSLEIIKGMKGYLVLPGHGDKVQLLEHHHHHH
MDNMAIADRRRLRRKLTFWRVAAVLLLVVGAFGLYRFFWQGPQQSAKPHIARIEVSGLITDNTELLERLDKIAKSDNVKGLIVSISSPGGTTYGGERIFKVIRSVAEKKPVVSDVRTLAASAGYMIASAGDVIVAGETSITGSIGVIFQYPQLGQLMEKLGVSLQEIKSSPMKAEPSPFHEAPEEAKTMIRAMVMDSYGWFVDLVADRRKLPREEVLKLADGSIFTGRQALANKLVDTLGGEKEVRAYFETRGVAKDLPIVEWRAPSSNSPFALFSVAQIAKLLGYDDLIPFAGPSQLGADKLFLDGLVSVWQVEPRLEHHHHHH
MDNSGKEAEAMALLAEAERKVKNSQSFFSGLFGGSSKIEEACEIYARAANMFKMAKNWSAAGNAFCQAAQLHLQLQSKHDAATCFVDAGNAFKKADPQEAINCLMRAIEIYTDMGRFTIAAKHHISIAEIYETELVDIEKAIAHYEQSADYYKGEESNSSANKCLLKVAGYAALLEQYQKAIDIYEQVGTNAMDSPLLKYSAKDYFFKAALCHFCIDMLNAKLAVQKYEELFPAFSDSRECKLMKKLLEAHEEQNVDSYTESVKEYDSISRLDQWLTTMLLRIKKTIQGDEEDLR
MDNWQDITDDRLVRPIHPGEVIADILDDLDINTANFAEILGVSNQTIQEVINGQRSITVDIAIRLGKALGNGPRLWLNLQQKVDLWYALQSHKEEYEQVMTLV
MDPEEEAFDAIRRFARAENINAASVTAIGAFATATLAFFDLKTQDYQEIPVAEQSEVLTLLGDITLDENGVPNPHLHVVLGFADGSTRGGHFLKGLVRPTLEVVIRETPAELRRSYNREFGIALIDPAKLEHHHHHH
MDPLLVTVITTCGKVFQFHVDRRRNVGYLKKRISKEGKGFPEVDDQEILFKGEKLDDNRIIDGICKDGNSVIHLLVKKS
